Test results from US8211429 (dated 2012).
Where two headings read alike, the source gives them in different places.

T1: human NRP2 (human, UniProt O60462)
T1 chain: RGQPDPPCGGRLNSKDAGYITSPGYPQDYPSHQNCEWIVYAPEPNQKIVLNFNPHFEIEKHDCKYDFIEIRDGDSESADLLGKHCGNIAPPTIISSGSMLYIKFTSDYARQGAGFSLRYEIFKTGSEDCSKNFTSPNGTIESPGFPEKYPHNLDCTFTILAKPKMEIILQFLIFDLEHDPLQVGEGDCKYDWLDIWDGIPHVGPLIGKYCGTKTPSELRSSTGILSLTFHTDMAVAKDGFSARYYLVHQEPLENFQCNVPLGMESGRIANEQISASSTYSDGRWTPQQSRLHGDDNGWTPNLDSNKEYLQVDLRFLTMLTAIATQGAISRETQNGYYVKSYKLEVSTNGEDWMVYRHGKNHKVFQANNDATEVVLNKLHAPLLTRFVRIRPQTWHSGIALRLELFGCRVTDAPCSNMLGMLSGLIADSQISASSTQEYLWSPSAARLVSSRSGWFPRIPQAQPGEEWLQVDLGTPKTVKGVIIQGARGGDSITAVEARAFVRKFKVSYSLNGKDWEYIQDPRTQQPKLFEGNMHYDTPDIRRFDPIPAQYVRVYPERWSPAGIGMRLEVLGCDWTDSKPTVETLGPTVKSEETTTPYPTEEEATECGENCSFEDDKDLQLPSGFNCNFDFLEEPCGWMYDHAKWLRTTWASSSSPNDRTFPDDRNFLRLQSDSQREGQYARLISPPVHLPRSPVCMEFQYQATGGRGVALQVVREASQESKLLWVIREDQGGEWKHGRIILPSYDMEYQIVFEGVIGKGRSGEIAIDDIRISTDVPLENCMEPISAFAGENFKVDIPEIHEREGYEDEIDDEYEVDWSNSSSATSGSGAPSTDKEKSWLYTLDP

T2: murine NRP2 (mouse, UniProt O35375)
T2 chain: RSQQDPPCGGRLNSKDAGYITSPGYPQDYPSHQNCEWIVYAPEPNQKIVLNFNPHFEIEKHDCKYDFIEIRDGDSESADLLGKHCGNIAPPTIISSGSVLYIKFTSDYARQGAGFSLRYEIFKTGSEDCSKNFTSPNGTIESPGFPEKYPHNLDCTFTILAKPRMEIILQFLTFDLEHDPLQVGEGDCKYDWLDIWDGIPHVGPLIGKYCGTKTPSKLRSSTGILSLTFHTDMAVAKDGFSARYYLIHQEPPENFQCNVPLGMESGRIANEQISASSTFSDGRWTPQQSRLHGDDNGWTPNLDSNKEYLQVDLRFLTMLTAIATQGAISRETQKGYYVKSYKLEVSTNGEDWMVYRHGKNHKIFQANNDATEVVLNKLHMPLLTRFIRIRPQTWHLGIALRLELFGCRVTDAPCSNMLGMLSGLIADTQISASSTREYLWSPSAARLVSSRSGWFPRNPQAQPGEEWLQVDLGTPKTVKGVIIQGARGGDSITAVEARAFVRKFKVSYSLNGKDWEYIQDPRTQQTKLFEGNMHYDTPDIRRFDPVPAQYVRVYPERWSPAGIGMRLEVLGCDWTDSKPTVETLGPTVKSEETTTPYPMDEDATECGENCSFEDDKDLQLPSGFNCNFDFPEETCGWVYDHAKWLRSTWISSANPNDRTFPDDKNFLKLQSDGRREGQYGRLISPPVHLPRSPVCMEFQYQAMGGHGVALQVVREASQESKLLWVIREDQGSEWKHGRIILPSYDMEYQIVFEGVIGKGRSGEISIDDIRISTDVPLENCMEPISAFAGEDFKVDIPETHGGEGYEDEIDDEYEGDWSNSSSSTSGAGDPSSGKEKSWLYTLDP

T3: murine NRP1 (mouse, UniProt P97333)
T3 chain: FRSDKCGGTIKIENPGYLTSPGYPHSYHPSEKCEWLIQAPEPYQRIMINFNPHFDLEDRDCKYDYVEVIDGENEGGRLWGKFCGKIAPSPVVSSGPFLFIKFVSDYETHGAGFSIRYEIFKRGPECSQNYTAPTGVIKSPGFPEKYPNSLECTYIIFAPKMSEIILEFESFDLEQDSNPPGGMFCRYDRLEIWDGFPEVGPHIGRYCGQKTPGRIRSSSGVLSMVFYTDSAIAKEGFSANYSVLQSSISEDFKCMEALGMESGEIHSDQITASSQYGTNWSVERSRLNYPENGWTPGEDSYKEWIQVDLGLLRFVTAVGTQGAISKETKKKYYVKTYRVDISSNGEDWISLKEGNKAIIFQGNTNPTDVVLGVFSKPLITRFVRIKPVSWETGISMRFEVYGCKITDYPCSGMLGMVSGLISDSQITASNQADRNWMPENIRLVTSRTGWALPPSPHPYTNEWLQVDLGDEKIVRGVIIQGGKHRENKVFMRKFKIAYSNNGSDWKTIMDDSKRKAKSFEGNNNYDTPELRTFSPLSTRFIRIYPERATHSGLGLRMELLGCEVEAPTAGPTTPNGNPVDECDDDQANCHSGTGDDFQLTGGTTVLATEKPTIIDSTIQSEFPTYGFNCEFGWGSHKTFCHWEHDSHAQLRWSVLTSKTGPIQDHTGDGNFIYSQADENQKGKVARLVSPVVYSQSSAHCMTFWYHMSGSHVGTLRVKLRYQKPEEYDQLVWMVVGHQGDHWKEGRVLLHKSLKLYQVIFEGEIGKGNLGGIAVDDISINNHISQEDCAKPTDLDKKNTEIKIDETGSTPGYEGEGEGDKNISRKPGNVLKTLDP


Legend:
human NRP2 [1] = biological target: T1, human NRP2; assay: SPR up to 500 nM
BSA = BSA (bovine, UniProt P02769); assay: SPR up to 500 nM
Chain of BSA (P02769 25-607): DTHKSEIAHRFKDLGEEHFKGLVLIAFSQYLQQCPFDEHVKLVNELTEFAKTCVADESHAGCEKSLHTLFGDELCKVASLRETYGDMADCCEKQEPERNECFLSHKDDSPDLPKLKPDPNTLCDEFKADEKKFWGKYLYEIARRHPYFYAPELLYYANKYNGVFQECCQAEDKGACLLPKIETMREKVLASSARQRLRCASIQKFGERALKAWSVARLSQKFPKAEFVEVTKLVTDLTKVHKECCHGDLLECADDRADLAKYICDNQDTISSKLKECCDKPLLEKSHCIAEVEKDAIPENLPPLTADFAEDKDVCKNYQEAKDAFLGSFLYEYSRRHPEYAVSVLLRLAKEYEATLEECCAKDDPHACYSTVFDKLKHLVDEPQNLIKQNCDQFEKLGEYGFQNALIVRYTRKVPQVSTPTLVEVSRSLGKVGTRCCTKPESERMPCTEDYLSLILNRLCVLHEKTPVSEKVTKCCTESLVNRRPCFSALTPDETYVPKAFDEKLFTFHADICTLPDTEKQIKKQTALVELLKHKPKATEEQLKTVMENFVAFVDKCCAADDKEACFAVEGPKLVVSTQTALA

ErbB2-ECD [2] = biological target: T4, ErbB2-ECD (human, UniProt P04626); assay: SPR up to 500 nM
murine NRP2 [3] = biological target: T2, murine NRP2; assay: SPR up to 500 nM
ErbB2-ECD [4] = biological target: T4, ErbB2-ECD; assay: SPR
murine NRP1 [5] = biological target: T3, murine NRP1; assay: SPR 25C
human NRP1 [6] = biological target: T5, human NRP1 (human, UniProt O14786); assay: SPR 25C
murine NRP1 [7] = biological target: T3, murine NRP1; assay: competition phage ELISA
human NRP1 [8] = biological target: T5, human NRP1; assay: competition phage ELISA
murine NRP1 [9] = biological target: T3, murine NRP1; assay: competition phage ELISA
human NRP1 [10] = biological target: T5, human NRP1; assay: competition phage ELISA; remark: listed apart in the source
murine NRP2 [11] = biological target: T2, murine NRP2; assay: SPR
human NRP2 [12] = biological target: T1, human NRP2; assay: SPR

binding result (human NRP2 [1])	binding result (BSA)	binding result (ErbB2-ECD [2])	binding result (murine NRP2 [3])	binding result (ErbB2-ECD [4])	Kd (murine NRP1 [5])	Kd (human NRP1 [6])	IC50 (murine NRP1 [7])	IC50 (human NRP1 [8])	IC50 (murine NRP1 [9])	IC50 (human NRP1 [10])	binding result (murine NRP2 [11])	binding result (human NRP2 [12])	Binder
no binding	no binding	no binding	no binding	–	–	–	–	–	–	–	–	–	YW64.3 (antibody, V domains shown) VH: EVQLVESGGGLVQPGGSLRLSCAASGFSFSSEPISWVRQAPGKGLEWVSSITGKNGYTYYADSVKGRFTISADTSKNTAYLQMNSLRAEDTAVYYCARWGKKVYGMDVWGQGTLVTVSS VL: DIQMTQSPSSLSASVGDRVTITCRASQSISSYLAWYQQKPGKAPKLLIYGASSRASGVPSRFSGSGSGTDFTLTISSLQPEDFATYYCQQYMSVPITFGQGTKVEIKR
no binding	no binding	–	no binding	no binding	11 nM	5 nM	38 nM	6.1 nM	38 nM	6.1 nM	–	–	YW107.4 (antibody, V domains shown) VH: EVQLVESGGGLVQPGGSLRLSCAASGFTFSSYAMSWVRQAPGKGLEWVSQISPAGGYTNYADSVKGRFTISADTSKNTAYLQMNSLRAEDTAVYYCARELPYYRMSKVMDVWGQGTLVTVSS VL: DIQMTQSPSSLSASVGDRVTITCRASQSISSYLAWYQQKPGKAPKLLIYGASSRASGVPSRFSGSGSGTDFTLTISSLQPEDFATYYCQQYYSSPLTFGQGTKVEIKR
–	–	–	–	–	–	–	–	–	–	–	no binding	no binding	YW107.4.87 (antibody, V domains shown) VH: EVQLVESGGGLVQPGGSLRLSCAASGFTFSSYAMSWVRQAPGKGLEWVSQISPAGGYTNYADSVKGRFTISADTSKNTAYLQMNSLRAEDTAVYYCARELPYYRMSKVMDVWGQGTLVTVSS VL: DIQMTQSPSSLSASVGDRVTITCRASQYFSSYLAWYQQKPGKAPKLLIYGASSRASGVPSRFSGSGSGTDFTLTISSLQPEDFATYYCQQYLGSPPTFGQGTKVEIKR
